According to publication PMC9424271, “Invariant surface glycoprotein 65 of Trypanosoma brucei is a complement C3 receptor” (Nature Communications, 2022):

How the values were obtained:
[1] = target: ISG65 1125G (residues 24-385), expressed with kifunensine and deglycosylated with Endo Hf (T. brucei EATRO1125); assay: SPR; ISG65 1125G immobilised by amine coupling (345 RU) on a CM5 chip; C3d from 4 uM in two-fold serial dilutions; 30 ul/min, 25 C, 20 mM HEPES pH 7.4, 300 mM NaCl, 0.05% TWEEN-20; 1:1 Langmuir model
[2] = target: ISG65 1125G (residues 24-385) with C-terminal AviTag and His10 tag, biotinylated (T. brucei EATRO1125); assay: SPR; biotinylated ISG65G (CHO, ~800 RU) on a streptavidin chip (SA); C3b and C3c from 500 nM in two-fold dilutions to 15.6 nM; 30 ul/min, 25 C, 20 mM HEPES pH 7.4, 150 mM NaCl, 0.005% TWEEN-20; C3b fitted to a two-state reaction model, C3c to a 1:1 Langmuir model
Human complement C3b = target: T1, Human complement C3b (human, UniProt P01024); assay: SPR; biotinylated ISG65G (CHO, ~800 RU) immobilised on a streptavidin chip (Series S SA); C3b and C3c from 500 nM in two-fold dilutions to 15.6 nM; 30 ul/min, 25 C, 20 mM HEPES pH 7.4, 150 mM NaCl, 0.005% TWEEN-20; C3b fitted to a two-state reaction model, C3c to the 1:1 Langmuir model; averages of three flow paths with different immobilisation levels; conditions: both partners purified
T1 construct: source: bought: Complement Technology

Human complement C3c = target: T2, Human complement C3c (human, UniProt P01024); assay: as above; conditions: both partners purified
T2 construct: source: bought: Complement Technology; copies: + +

[3] = target: T3, Complement C3d (residues 996-1303 of H. sapiens C3, C1010A) (human, UniProt P01024 996-1303, C1010A); assay: SPR; ISG65 1125G immobilised by amine coupling (345 RU) on a CM5 chip; C3d from 4 uM in two-fold dilutions; 30 ul/min, 25 C, 20 mM HEPES pH 7.4, 300 mM NaCl, 0.05% TWEEN-20; 1:1 Langmuir model; averages of three repeats on the same flow path; conditions: both partners purified
T3 construct: also called C3d-WT; TED domain
T3 sequence (P01024 996-1303 C1010A): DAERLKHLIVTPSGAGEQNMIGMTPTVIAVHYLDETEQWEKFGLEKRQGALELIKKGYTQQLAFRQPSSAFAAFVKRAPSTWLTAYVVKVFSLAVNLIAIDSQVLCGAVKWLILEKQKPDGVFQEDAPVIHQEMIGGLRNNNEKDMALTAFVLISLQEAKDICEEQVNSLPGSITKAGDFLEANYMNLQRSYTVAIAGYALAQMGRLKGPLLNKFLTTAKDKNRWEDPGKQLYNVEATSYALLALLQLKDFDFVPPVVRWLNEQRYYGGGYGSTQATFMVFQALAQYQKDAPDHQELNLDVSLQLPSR

T2 sequence (P01024 23-667, chain 1 of 3): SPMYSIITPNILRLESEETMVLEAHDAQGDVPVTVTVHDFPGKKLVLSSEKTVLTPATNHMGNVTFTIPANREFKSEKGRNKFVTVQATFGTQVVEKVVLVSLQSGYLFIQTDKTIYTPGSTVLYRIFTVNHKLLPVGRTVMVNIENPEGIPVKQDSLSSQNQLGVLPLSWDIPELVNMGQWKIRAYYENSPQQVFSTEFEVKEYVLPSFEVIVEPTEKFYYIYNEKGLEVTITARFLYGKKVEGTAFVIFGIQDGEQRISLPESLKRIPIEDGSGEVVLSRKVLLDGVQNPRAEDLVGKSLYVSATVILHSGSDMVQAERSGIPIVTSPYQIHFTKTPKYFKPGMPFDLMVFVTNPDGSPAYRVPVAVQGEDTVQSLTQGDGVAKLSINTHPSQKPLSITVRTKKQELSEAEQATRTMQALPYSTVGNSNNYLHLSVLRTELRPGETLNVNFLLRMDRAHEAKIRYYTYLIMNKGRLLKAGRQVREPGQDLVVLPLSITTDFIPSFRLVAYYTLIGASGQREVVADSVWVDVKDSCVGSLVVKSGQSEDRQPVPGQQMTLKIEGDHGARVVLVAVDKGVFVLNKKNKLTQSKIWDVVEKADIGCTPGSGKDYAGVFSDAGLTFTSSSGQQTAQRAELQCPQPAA
T2 sequence (P01024 749-954, chain 2 of 3): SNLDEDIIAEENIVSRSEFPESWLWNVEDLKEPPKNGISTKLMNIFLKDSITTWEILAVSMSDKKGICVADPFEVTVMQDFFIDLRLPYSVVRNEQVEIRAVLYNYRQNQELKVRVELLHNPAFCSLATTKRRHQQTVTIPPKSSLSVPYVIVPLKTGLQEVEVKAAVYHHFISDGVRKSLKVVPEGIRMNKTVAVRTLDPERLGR
T2 sequence (P01024 1321-1663, chain 3 of 3): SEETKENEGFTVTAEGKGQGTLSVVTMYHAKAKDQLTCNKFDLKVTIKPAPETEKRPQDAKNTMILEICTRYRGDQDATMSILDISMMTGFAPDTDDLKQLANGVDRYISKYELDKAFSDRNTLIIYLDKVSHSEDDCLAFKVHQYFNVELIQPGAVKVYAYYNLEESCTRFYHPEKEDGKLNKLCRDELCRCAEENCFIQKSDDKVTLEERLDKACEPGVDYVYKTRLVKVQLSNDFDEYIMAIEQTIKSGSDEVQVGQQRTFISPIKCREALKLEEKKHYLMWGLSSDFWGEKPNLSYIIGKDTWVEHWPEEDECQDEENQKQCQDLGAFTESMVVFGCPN
T1 sequence (P01024 23-667, chain 1 of 2): as the sequence (P01024 23-667, chain 1 of 3) above
T1 sequence (P01024 749-1663, chain 2 of 2): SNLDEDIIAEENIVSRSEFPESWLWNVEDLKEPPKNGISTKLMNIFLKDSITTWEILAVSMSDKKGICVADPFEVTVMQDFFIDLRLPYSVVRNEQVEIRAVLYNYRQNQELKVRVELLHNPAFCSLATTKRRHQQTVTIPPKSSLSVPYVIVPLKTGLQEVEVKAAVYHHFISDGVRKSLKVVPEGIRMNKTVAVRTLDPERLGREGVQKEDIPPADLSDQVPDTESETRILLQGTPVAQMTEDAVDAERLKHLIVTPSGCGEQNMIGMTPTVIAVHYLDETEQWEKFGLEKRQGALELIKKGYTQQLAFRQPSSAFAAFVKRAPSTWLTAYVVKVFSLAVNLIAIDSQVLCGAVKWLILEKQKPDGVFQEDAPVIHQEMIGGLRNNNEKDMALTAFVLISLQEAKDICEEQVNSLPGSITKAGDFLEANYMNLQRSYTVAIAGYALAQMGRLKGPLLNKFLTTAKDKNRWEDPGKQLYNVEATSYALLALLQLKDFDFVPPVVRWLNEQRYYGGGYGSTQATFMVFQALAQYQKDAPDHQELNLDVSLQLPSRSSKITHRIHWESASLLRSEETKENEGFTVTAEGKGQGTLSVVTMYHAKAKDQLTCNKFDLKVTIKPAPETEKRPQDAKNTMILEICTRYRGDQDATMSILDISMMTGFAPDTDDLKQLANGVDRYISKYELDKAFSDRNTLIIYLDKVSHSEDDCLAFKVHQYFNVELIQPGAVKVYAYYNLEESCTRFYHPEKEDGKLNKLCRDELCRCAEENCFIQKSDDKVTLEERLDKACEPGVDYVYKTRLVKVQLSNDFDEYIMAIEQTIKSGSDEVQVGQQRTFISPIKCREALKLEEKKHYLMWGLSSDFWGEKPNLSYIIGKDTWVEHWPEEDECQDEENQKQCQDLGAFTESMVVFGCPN

“human complement C3d (C3 residues 996-1303, C1010A) (from UniProt P01024 996-1303) (domain or fragment)” showed a Kd [1] of 602 nM.

“human complement C3b (from UniProt P01024 749-1663) (domain or fragment)” was tested, and the Kd [2] was 40 nM.

“human complement C3c (domain or fragment)” was tested, and the Kd [2] was 750 nM.

B1: ISG65 1125G (residues 24-385), biotinylated (domain or fragment)
chain: EDNRVPGDKNLTKEGAAALCKMKHLADKVAEKRSQELKDRTQNFAGYIEFELYRIDYWLEKLNGPKGRKDGYAKLSDSDIEKVKEIFDKAKDGIAKQLPEAKKAGEDAEKLHTEVKEAAANARGQDLDDHKQKSTGLYRVLNWYCITKEESHNATPNCDGIQFRNHYLSVNRSAIDCSSTGYEENYDWSANALQVALNSWENVKPKKLESAGSDENCNIGQSSESHPCTMTEEWQTHYKETVKKLKELEGAHEKGRRAHDAMLGYANTAYAVNTKVEQEKPLAEVIAAAKEAGKKGAKIIIPAAAPVTPTNSTKNEDSAPTEHVDRGIATNETQVEVGIDADFDGLLEAAEAAEVTRRHQKTGSGSGSASG
modifications: biotin on the AviTag
notes: also called ISG65G; ISG65 E1125G
B1 showed a Kd (Human complement C3b) of 67 nM, a Kd (Human complement C3c) of 391 nM and a koff (Human complement C3c) of 0.008 s⁻¹. It also gave a kon (Human complement C3c) of 20000 M⁻¹ s⁻¹.

B2: ISG65 1125G (residues 24-385), expressed with kifunensine and treated with Endo Hf (domain or fragment)
chain: EDNRVPGDKNLTKEGAAALCKMKHLADKVAEKRSQELKDRTQNFAGYIEFELYRIDYWLEKLNGPKGRKDGYAKLSDSDIEKVKEIFDKAKDGIAKQLPEAKKAGEDAEKLHTEVKEAAANARGQDLDDHKQKSTGLYRVLNWYCITKEESHNATPNCDGIQFRNHYLSVNRSAIDCSSTGYEENYDWSANALQVALNSWENVKPKKLESAGSDENCNIGQSSESHPCTMTEEWQTHYKETVKKLKELEGAHEKGRRAHDAMLGYANTAYAVNTKVEQEKPLAEVIAAAKEAGKKGAKIIIPAAAPVTPTNSTKNEDSAPTEHVDRGIATNETQVEVGIDADFDGLLEAAEAAEVTRRHQKTGSGSGSASG
notes: also called ISG65G
B2 showed a Kd [3] of 514 nM, a koff [3] of 0.1 s⁻¹ and a kon [3] of 300000 M⁻¹ s⁻¹.
